The target of experiment [1] is KIR3DL2 on fresh Sezary Syndrome cells of patients (human) (UniProt P43630). The experiment in a line: flow cytometry of whole blood of a Sezary Syndrome patient, antibody + GaM-PE against CD4; upper gate (CD4+ cells).
For experiment [2], the target named is NK cells, including normal KIR3DL2+ NK cells (Homo sapiens) (UniProt P43630). The experiment in a line: flow cytometry of whole blood of a Sezary Syndrome patient, antibody + GaM-PE against CD4; lower gate (CD4-negative NK cells).
NK cells, including normal KIR3DL2+ NK cells (Homo sapiens), sequence (P43630 22-455 limits assumed): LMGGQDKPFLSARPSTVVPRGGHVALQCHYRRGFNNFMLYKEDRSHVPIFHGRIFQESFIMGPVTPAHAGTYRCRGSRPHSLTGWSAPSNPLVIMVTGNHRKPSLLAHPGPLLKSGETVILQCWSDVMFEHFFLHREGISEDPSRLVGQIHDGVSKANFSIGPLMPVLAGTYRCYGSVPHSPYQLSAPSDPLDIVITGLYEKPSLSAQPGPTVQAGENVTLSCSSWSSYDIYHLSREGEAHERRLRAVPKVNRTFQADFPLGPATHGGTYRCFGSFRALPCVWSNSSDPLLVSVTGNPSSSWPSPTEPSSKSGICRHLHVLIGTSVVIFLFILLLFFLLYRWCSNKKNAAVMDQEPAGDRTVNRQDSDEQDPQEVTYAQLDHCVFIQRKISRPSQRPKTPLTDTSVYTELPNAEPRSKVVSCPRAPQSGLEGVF

KIR3DL2 on fresh Sezary Syndrome cells of patients (human), sequence (P43630 22-455): as the sequence (P43630 22-455 limits assumed) above

As to Isotype Control (antibody), the % of cells in gate CD4 GaM PE+ in experiment [1] came out at 0.1%. Further, the % of cells in gate NK GaM PE+ in experiment [2] is 0.9%.

Source of the values: US20150291692A1.
